Results published in publication doi:10.1101/452904 (bioRxiv, 2018).

Target: FLAG-Sec23A (human, UniProt Q15436 1-765)
Assay: pull-down

FLAG-Sec23A, sequence (Q15436 whole entry): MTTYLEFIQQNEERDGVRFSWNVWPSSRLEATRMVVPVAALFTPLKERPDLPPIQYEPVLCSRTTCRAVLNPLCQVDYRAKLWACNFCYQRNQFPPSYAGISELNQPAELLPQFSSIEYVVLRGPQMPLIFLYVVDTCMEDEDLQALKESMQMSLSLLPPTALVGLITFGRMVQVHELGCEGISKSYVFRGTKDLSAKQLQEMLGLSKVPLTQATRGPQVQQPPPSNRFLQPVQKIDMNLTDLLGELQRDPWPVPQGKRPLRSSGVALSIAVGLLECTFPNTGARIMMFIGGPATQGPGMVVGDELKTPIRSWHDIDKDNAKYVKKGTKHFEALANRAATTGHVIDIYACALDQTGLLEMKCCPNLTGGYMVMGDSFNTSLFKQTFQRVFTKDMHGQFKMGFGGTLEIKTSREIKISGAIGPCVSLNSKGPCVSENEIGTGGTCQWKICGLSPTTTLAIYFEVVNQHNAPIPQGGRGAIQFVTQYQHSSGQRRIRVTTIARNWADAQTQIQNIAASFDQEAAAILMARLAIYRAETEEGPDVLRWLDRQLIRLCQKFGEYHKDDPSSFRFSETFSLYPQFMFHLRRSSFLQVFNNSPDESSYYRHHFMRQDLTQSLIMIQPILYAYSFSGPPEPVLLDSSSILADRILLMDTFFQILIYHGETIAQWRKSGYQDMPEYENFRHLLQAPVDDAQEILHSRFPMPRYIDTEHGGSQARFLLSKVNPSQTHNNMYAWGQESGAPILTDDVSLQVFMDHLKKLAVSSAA

B1: GST-tagged TANGO1-PRD (1651–1907 aa)-His6 (domain or fragment)
chain: NTQNPPRRGPLSQNGSFGPSPVSGGECSPPLTVEPPVRPLSATLNRRDMPRSEFGSVDGPLPHPRWSAEASGKPSPSDPGSGTATMMNSSSRGSSPTRVLDEGKVNMAPKGPPPFPGVPLMSTPMGGPVPPPIRYGPPPQLCGPFGPRPLPPPFGPGMRPPLGLREFAPGVPPGRRDLPLHPRGFLPGHAPFRPLGSLGPREYFIPGTRLPPPTHGPQEYPPPPAVRDLLPSGSRDEPPPASQSTSQDCSQALKQSP
binding result: binds
